{"source": "paper PMC9507130", "data": [{"target": "Vin1^1-116-mScI (UniProt P36158)", "sequence (P36158 1-116)": "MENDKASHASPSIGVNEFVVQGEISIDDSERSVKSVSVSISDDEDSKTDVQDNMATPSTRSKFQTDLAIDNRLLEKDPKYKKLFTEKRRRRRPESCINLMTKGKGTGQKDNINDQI", "test": "subcellular recruitment assay (fluorescence microscopy, puncta quantification)", "settings": "vrl1 vin1Δ cells; over-expressed Vrl1(1-703)YPE chimera; pVIN1(1-116)-mScI; n=3, cells/strain/replicate ≥863; parent: est. 0.82; read off a plot", "values": [{"substance": "Vrl1(1-703)^YPE (from UniProt P38815) D511K", "other: Average Bright Vin1(1-116)-mScI Puncta Per Cell (puncta per cell)": 0.14}, {"substance": "Vrl1(1-703)^YPE (from UniProt P38815) E504A; E510A; D511A; N546A; E551A", "other: Average Bright Vin1(1-116)-mScI Puncta Per Cell (puncta per cell)": 0.075}, {"substance": "Vrl1(1-703)^YPE (from UniProt P38815) E510R", "other: Average Bright Vin1(1-116)-mScI Puncta Per Cell (puncta per cell)": 0.04}]}]}
